From patent US20210283178A1

Key:
[1] = biological target: HLA-A2 alone (recombinant human HLA-A2:Ig fusion protein, DimerX I, without added peptide) (human); assay: flow cytometry of CAR-T cells incubated with biotinylated HLA-A2, then streptavidin-APC; 82.9% GFP+ APC- (lower right); untransduced T cells: 0.02% in the upper right quadrant
[2] = biological target: AIQ-HLA-A2 complex (… peptide loaded on recombinant human HLA-A2:Ig fusion protein, DimerX I) (human); assay: flow cytometry of CAR-T cells incubated with biotinylated AIQ-HLA-A2, then streptavidin-APC; 82.4% GFP+ APC- (lower right); untransduced T cells: 0.00% in the upper right quadrant
[3] = biological target: SLL-HLA-A2 complex (NY-ESO-1 peptide … loaded on recombinant human HLA-A2:Ig fusion protein, DimerX I) (human); assay: flow cytometry of CAR-T cells incubated with biotinylated SLL-HLA-A2, then streptavidin-APC; 82.6% GFP+ APC- (lower right); untransduced T cells: 0.04% in the upper right quadrant

% of cells in the upper right quadrant (GFP+ / streptavidin-APC+) [1]: 0.13% | % of cells in the upper right quadrant (GFP+ / streptavidin-APC+) [2]: 0.17% | % of cells in the upper right quadrant (GFP+ / streptavidin-APC+) [3]: 0.03%
Substance: CD19 CAR expressed on human CD8+ T cells
